The target of experiment [1] is T1, human MDA5 protein (full-length, about 120 kDa) (human, UniProt Q9BYX4 1-1025).
T1 construct: Endogenous cytoplasmic protein in human tissue sections, tissue lysates and PBMCs (band of about 120 kDa); also called IFIH1
T1 sequence: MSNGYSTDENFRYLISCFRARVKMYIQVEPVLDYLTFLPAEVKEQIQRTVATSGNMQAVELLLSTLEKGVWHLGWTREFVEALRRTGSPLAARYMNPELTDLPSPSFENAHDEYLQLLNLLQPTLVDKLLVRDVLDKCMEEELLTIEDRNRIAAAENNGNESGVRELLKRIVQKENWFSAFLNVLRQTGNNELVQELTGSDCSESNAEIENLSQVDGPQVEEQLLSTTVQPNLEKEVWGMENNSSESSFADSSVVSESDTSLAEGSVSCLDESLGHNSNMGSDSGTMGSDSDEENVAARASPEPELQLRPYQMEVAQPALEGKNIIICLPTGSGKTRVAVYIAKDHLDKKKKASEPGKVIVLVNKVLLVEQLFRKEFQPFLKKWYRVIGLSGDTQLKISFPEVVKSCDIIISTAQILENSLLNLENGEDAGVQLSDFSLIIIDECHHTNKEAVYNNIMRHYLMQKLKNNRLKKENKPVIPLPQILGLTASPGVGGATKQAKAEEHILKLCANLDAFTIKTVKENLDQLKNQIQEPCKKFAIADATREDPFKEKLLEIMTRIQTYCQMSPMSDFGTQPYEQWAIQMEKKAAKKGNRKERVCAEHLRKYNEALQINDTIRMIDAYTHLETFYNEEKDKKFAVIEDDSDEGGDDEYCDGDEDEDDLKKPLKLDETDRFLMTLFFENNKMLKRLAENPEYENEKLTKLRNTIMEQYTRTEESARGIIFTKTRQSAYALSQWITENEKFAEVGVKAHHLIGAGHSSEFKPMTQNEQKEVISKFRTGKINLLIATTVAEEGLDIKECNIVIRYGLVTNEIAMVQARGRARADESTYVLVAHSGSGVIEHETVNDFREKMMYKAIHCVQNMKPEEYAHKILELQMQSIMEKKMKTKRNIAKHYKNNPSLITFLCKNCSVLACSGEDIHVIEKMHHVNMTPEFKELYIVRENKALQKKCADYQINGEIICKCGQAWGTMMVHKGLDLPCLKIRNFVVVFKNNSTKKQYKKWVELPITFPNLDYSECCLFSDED
The experiment in a line: Western blot of normal lung and lung cancer tissues, mAb at 1 ug/mL. The procedure: Western blotting analysis was performed by using NuPAGE (registered trademark) 7% Tris-Acetate Midi Gel (Thermo Fisher Scientific, Tokyo, Japan) according to the manufacture’s protocol. Anti-human MDA5 mAb (clone H27 or clone H46, 1 µg/mL) was used for immunoblotting, as previously reported (T. Hoshino, et al., Am J Respir Crit Care Med 176 (2007) 49-62).

Experiment [2] deals with T2, recombinant human MDA5 protein (human, UniProt Q9BYX4 1-1025).
T2 construct: Expressed in SF9 cells with baculovirus; also called pPSC8/human MDA5 product; MDA5 standard; not shown: N-terminal 6X His tag, GST and turbo 3C protease cleavage site
T2 sequence: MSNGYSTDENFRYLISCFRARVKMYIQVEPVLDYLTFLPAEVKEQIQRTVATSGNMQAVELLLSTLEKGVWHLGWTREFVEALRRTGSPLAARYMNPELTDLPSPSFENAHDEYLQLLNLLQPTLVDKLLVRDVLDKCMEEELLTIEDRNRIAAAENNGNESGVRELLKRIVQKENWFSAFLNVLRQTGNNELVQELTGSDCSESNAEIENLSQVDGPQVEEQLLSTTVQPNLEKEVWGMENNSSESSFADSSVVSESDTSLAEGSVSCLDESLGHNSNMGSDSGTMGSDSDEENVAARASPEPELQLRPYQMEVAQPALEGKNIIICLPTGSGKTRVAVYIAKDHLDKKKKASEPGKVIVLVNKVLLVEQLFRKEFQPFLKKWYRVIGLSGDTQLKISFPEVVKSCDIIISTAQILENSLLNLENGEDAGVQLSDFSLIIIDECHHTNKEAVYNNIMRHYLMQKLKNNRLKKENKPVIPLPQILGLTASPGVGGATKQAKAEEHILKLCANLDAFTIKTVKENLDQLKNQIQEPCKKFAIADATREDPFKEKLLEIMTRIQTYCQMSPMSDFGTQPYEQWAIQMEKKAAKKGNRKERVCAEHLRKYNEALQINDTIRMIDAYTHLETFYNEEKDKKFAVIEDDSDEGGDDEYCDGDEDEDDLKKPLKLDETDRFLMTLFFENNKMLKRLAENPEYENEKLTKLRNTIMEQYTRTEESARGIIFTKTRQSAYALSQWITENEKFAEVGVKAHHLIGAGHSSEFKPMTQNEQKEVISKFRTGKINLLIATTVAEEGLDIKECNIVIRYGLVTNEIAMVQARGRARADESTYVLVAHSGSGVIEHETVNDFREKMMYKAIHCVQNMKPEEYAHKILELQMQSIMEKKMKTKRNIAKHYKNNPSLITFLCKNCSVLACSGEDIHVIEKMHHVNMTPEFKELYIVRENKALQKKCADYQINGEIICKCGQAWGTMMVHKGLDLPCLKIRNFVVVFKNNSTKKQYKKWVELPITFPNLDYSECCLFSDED
As to the kind of experiment: electrochemiluminescence sandwich immunoassay (MSD), H46 coated as primary (capture) mAb. As for the experimental part:
The human MDA5 sandwich immunoassay system was established using electrochemiluminescence in a MESOSCALE DISCOVERY (registered trademark) assay system (Meso Scale Japan, Tokyo, Japan). Briefly, mouse anti-human MDA5 monoclonal antibody (clone H46) was used as the primary mAb, dissolved at 2 µg/mL in phosphate-buffered saline (PBS), dispensed into plates in aliquots of 25 µL/well, and left undisturbed overnight at 4° C. The plates were then washed three times with 150 µL Quantikine Wash Buffer 1 (R&D Systems, Minneapolis, MN, USA). Block Ace blocking solution (100 µL/well; Nacalai Tesque, Kyoto, Japan) was added and incubated for at least one hour at room temperature to prevent nonspecific adhesion of the secondary antibody to the plates. The plates were then washed thrice. The samples were aliquoted at 25 µL/well. Recombinant human MDA5 protein diluted to 50 ng/mL, 10 ng/mL, 2 ng/mL, 400 pg/mL, 80 pg/mL, 16 pg/mL, and 3.2 pg/mL was used as a standard. After 1 h of incubation at room temperature, each well was washed thrice. Next, 2 µg/mL biotin-labeled mouse anti-human MDA5 secondary mAb (clone H27) was added at 25 µL/well, followed by incubation for 1 h at room temperature after which each well was washed three times. […] The amount of human MDA5 protein was measured using MESO QuickPlex SQ 120 according to the manufacturer’s protocol.

B1: mouse anti-human MDA5 monoclonal antibody (H46) (antibody, V domains shown)
VH: EFQLQQSGPELVKPGASVKISCKASGYSFTDYNMNWVKQSNGKSLEWIGVINPDYGSTSYNKKFKGKATLTVDQSSTTAYMQLNSLTSEDSAVYFCARDRYGNYFDYWGQGTTLTVSS
VL: QIVLTQSPAIMSASPGEKVTMTCSASSSLNYMHWYLQKPGTSPKRWIYDTSKLASGVPARFSGSGSGTSYSLTISSMEAEDAATYYCHQRSSYPITFGSGTKLEIK
notes: Mouse IgG2b from a hybridoma; also called clone H46; H46 [mouse IgG2b]
For B1, the binding result in experiment [1] and in experiment [2] was “binds” in each case.

Source of the values: patent publication US20230314433A1 (KURUME UNIVERSITY, published 2023).
